In PMC3308208, “Disassembly and reassembly of human papillomavirus virus-like particles produces more virion-like antibody reactivity” (Virology Journal, 2012):

Target: the molecule itself
Assay: cryo-EM imaging; post-D/R HPV16 VLPs, undiluted, in vitrified ice on holey carbon films; Tecnai F20 at 120 keV

B1: HPV16 L1 virus-like particles (VLPs) (natural protein)
chain: MSLWLPSEATVYLPPVPVSKVVSTDEYVARTNIYYHAGTSRLLAVGHPYFPIKKPNNNKILVPKVSGLQYRVFRIHLPDPNKFGFPDTSFYNPDTQRLVWACVGVEVGRGQPLGVGISGHPLLNKLDDTENASAYAANAGVDNRECISMDYKQTQLCLIGCKPPIGEHWGKGSPCTNVAVNPGDCPPLELINTVIQDGDMVDTGFGAMDFTTLQANKSEVPLDICTSICKYPDYIKMVSEPYGDSLFFYLRREQMFVRHLFNRAGAVGENVPDDLYIKGSGSTANLASSNYFPTPSGSMVTSDAQIFNKPYWLQRAQGHNNGICWGNQLFVTVVDTTRSTNMSLCAAISTSETTYKNTNFKEYLRHGEEYDLQFIFQLCKITLTADVMTYIHSMNSTILEDWNFGLQPPPGGTLEDTYRFVTSQAIACQKHTPPAPKEDPLKKYTFWEVNLKEKFSADLDQFPLGRKFLLQAGLKAKPKFTLGKRKATPTTSSTSTTAKRKKRKL
notes: major capsid protein L1 of human papillomavirus type 16, full length, self-assembled into VLPs; The same L1 protein was tested as pre-D/R VLPs (purified only) and as post-D/R VLPs (disassembled and reassembled); The T = 7 count of 360 copies is stated only in the background; also called HPV 16 L1 VLPs; post-D/R VLPs; source: over expressed in yeast, purified VLPs; post-D/R lots after disassembly …
Question: Does B1 bind?
Answer: Result: binds
